Measured values taken from article PMC7763554, “The Two-Component System CopRS Maintains Subfemtomolar Levels of Free Copper in the Periplasm of Pseudomonas aeruginosa Using a Phosphatase-Based Mechanism” (mSphere, 2020).

Biological target: the molecule itself
Assay: SDS-PAGE; 10 ug of purified protein on 8 to 16% gradient SDS-PAGE, Coomassie blue G250; monomer and dimer bands with expected masses of 19 and 38 kDa

B1: His-tagged CopS(34-151), periplasmic copper binding loop (sensor domain) of Pseudomonas aeruginosa CopS (domain or fragment, UniProt Q9I033 34-151, looked up)
chain: FSRAIDEHFVELDHMAMSAKLAVFRDELRGLGSEQQMRRREAELLRELARHPDLGLRLNGPDGNLWFERLPQPAHPGLPANRELGAPLEPGNDASPRLTVILDISHHQHFLQRMRQLI
notes: CopS, sensor histidine kinase of the two-component system CopRS, Pseudomonas aeruginosa PAO1; periplasmic sensor domain, residues 34-151, amplified from genomic DNA; The His6 tag is joined by a TEV cleavage site, and the tag was not cleaved; The expected monomer mass is printed as 19 kDa, which is more than residues 34-151 plus the tag would give, so the pBAD-topo vector may add residues …
stoichiometry N: 2
